Results published in publication PMC4987244 (Cancer research, 2016).
Where two headings read alike, the source gives them in different places.

Legend:
[1] = target: the molecule itself
[2] = target: the molecule itself; assay: cross-linking
[3] = target: T1, HA-tagged PRL1 expressed in HEK293 cells, Q93096; assay: cross-linking; conditions: remark: other sources report otherwise
T1 chain: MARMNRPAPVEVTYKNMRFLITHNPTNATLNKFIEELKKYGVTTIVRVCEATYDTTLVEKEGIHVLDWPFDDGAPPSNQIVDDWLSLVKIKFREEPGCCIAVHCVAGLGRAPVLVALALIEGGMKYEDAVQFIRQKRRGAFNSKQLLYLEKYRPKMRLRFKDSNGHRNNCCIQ

Row | Binder | stoichiometry N [2] | other results
1 | PRL2 (enzyme, UniProt Q12974 1-167, looked up) MNRPAPVEISYENMRFLITHNPTNATLNKFTEELKKYGVTTLVRVCDATYDKAPVEKEGIHVLDWPFDDGAPPPNQIVDDWLNLLKTKFREEPGCCVAVHCVAGLGRAPVLVALALIECGMKYEDAVQFIRQKRRGAFNSKQLLYLEKYRPKMRLRFRDTNGHCCVQ | – | stoichiometry N [1]: 3
2 | PRL1 (phosphatase of regenerating liver 1), recombinant wild type (enzyme) MNRPAPVEVTYKNMRFLITHNPTNATLNKFIEELKKYGVTTIVRVCEATYDTTLVEKEGIHVLDWPFDDGAPPSNQIVDDWLSLVKIKFREEPGCCIAVHCVAGLGRAPVLVALALIEGGMKYEDAVQFIRQKRRGAFNSKQLLYLEKYRPKMRLRF | 3 | –
3 | PRL1/F132A, recombinant (enzyme) MNRPAPVEVTYKNMRFLITHNPTNATLNKFIEELKKYGVTTIVRVCEATYDTTLVEKEGIHVLDWPFDDGAPPSNQIVDDWLSLVKIKFREEPGCCIAVHCVAGLGRAPVLVALALIEGGMKYEDAVQAIRQKRRGAFNSKQLLYLEKYRPKMRLRF | 3 | –
4 | PRL1/Y14A, recombinant (enzyme) MNRPAPVEVTAKNMRFLITHNPTNATLNKFIEELKKYGVTTIVRVCEATYDTTLVEKEGIHVLDWPFDDGAPPSNQIVDDWLSLVKIKFREEPGCCIAVHCVAGLGRAPVLVALALIEGGMKYEDAVQFIRQKRRGAFNSKQLLYLEKYRPKMRLRF | 3 | –
5 | HA-tagged PRL1 expressed in HEK293 cells, Q93096 1-173 (enzyme) MARMNRPAPVEVTYKNMRFLITHNPTNATLNKFIEELKKYGVTTIVRVCEATYDTTLVEKEGIHVLDWPFDDGAPPSNQIVDDWLSLVKIKFREEPGCCIAVHCVAGLGRAPVLVALALIEGGMKYEDAVQFIRQKRRGAFNSKQLLYLEKYRPKMRLRFKDSNGHRNNCCIQ | – | stoichiometry N [3]: 3
